Here are results for ten molecules from patent US20200317776A1 (published 2020).

For orientation: Kd means a measure of binding affinity in units of concentration.

In test [1] the target is human TREM2/DAP12 fusion protein (human, UniProt O43914 41-113, limits assumed). Nature of the test: cell-based or functional assay.
The target of test [2] is T1, human TREM2 Fc fusion (entire TREM2 ECD; only one Fc arm fused to TREM2) (human, UniProt Q9NZC2 19-174).
T1 construct: also called huTREM2-Fc; recombinant hTREM2
T1 sequence: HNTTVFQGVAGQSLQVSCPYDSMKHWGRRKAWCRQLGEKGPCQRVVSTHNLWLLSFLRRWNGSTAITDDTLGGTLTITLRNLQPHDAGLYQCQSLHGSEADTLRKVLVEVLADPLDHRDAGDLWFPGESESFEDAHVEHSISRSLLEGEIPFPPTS
The test can be described thus: BLI, IgG, avid. How it is done:
Briefly, IgGs were loaded on-line onto AHQ sensors, Sensors were equilibrated off-line in assay buffer for 30 minutes and then monitored on-line for 60 seconds for baseline establishment. For avid binding measurement, sensors with loaded IgGs were exposed to 100 nM antigen (human or cynomolgus monkey TREM2 Fe fusion using the entire TREM2 ECD; only one Fc arm was fused to TREM2) for 3 minutes, afterwards they were transferred to assay buffer for 3 minutes for off-rate measurement. Monovalent binding measurements were obtained by loading human TREM2 Fc fusion antigens to AHQ sensor and followed by exposure to 100 nM TREM2 antibody Fab. Kinetics data were fit using a 1:1 binding model in the data analysis software provided by ForteBio. Assay was run at room temperature (25° C.).

Test [3] has as its target T1, human TREM2 Fc fusion (entire TREM2 …). Nature of the test: BLI, Fab, monovalent. (Biolayer interferometry detects binding as a change in optical thickness at a sensor tip.)
The target in test [4] is T2, cynomolgus monkey TREM2 Fc fusion (entire TREM2 ECD; only one Fc arm fused to TREM2) (cynomolgus monkey, UniProt Q9NZC2 19-174 (human entry)).
T2 construct: also called cyno TREM2-Fc
T2 chain: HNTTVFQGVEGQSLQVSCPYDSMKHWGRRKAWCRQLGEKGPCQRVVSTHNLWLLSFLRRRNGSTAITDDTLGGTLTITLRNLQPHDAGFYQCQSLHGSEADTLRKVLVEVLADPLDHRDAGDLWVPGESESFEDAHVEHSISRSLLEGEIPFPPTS
Nature of the test: BLI, Fab, monovalent.

In test [5] the target is T3, human TREM2 expressed on cells (human, UniProt Q9NZC2 19-230).
T3 construct: BW5147.G.1.4 cells stably expressing human TREM2 together with Dap12, or endogenous TREM2 of primary human myeloid cells; also called huT2 BW; hTREM2 expressing cell line
T3 sequence: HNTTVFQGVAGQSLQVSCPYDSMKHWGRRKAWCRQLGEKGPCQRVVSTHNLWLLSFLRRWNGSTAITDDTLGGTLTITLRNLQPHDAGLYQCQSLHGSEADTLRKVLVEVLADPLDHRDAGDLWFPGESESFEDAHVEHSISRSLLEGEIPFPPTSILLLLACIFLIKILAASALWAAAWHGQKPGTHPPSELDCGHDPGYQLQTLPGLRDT
The test can be described thus: FACS, hTREM2 BW cells. The source says: To examine cell binding of affinity matured anti-TREM2 antibodies, both primary human monocyte derived dendritic cells and recombinant, human TREM2 expressing cells were utilized. For the latter, BW5147.G.1.4 (ATCC® TIB48™) and HEK293T cells stably expressing human TREM2 together with Dap12 using viral infection were established. For primary human monocyte derived dendritic cells, human monocytes were isolated from whole blood using RosetteSep Human monocyte enrichment cocktail (Stemcell technologies) and Ficoll centrifugation per manufacturer protocols. After lysing red blood cells with ACK lysing buffer, monocytes were resuspended in complete media (RPMI, 10% FBS, Pen/Strep, L-glutamine, HEPES, non-essential amino acid, Sodium pyruvate) with 100 ng/ml human GM-CSF (hu-GMCSF) and, human IL-4 (hu-IL-4) to differentiate dendritic cells for 6 days.
Cells were harvested by trypsinization (Hek293T) or scraping (BW and dendritic cells), washed in PBS, counted and plated on 96-well U bottom plates at […] cells/well. The plates were spun at 1,400 rpm for 3 minutes and primary TREM2 or control antibodies were added in FACS buffer (PBS+2% FBS) and incubated on ice for one hour. Cells were subsequently centrifuged as before and washed thrice with FACS buffer. Cells were then incubated with anti-human PE conjugated secondary antibody (BD Biosciences) in FACS buffer for 30 minutes on ice. Cells were again washed thrice with FACS buffer and analyzed on a BD FACS Canto or an Intellicyt Flow Cytometer. Binding was measured as mean fluorescence intensity in the APC channel.
A general note: A flow cytometer gives signals particle by particle.

B1: AL2p-20 (antibody, V domains shown)
VH: QVQLVQSGAEVKKPGSSVKVSCKASGYAFSSHWMNWVRQAPGQGLEWMGRIYPGDGDTNYARKFQGRVTITADESTSTAYMELSSLRSEDTAVYYCARLLRNQPGESYAMDYWGQGTLVTVSS
VL: GVVMTQTPLSLSVTPGQPASISCRTSQSLVHSNGYTYLHWYLQKPGQSPQLLIYKVSNRVSGVPDRFSGSGSGTDFTLKISRVEAEDVGVYYCSQSTRVPYTFGQGTKLEIK
notes: Fab and IgG formats under one id
Regarding B1, the “Luciferase activation plate bound 33 nM IgG, FOC” value in test [1] is 22.4 FOC. In test [1], the “Luciferase activation soluble 10 nM IgG, FOC” value came out at 2.12 FOC. In addition, the Kd in test [2] amounted to 0.35 nM; in test [3], 4.73 nM; in test [4] it was 4.72 nM; in test [5] it was 1.2 nM.

B2: AL2p-24 (antibody, V domains shown)
VH: QVQLVQSGAEVKKPGSSVKVSCKASGYAFSSHWMNWVRQAPGQGLEWMGRIYPGGGDTNYAQKFQGRVTITADESTSTAYMELSSLRSEDTAVYYCARLLRNQPGESYAMDYWGQGTLVTVSS
VL: GVVMTQTPLSLSVTPGQPASISCRSSRSLVHSNGYTYLHWYLQKPGQSPQLLIYKVSNRFSGVPDRFSGSGSGTDFTLKISRVEAEDVGVYYCSQSTRVPYTFGQGTKLEIK
notes: as for B1
B2: the “Luciferase activation plate bound 33 nM IgG, FOC” value in test [1] worked out at 24.1 FOC. In addition, the “Luciferase activation soluble 10 nM IgG, FOC” value in test [1] worked out at 2.12 FOC. Also, the Kd in test [2] came out at 0.233 nM; in test [3] it was 2.1 nM; in test [4], 1.63 nM; in test [5] it was 1.7 nM.

B3: AL2p-22 (antibody, V domains shown)
VH: QVQLVQSGAEVKKPGSSVKVSCKASGYAFSSHWMNWVRQAPGQGLEWMGRIYPGDGDTNYAYKFQGRVTITADESTSTAYMELSSLRSEDTAVYYCARLLRNQPGESYAMDYWGQGTLVTVSS
VL: GVVMTQTPLSLSVTPGQPASISCRSSRSLVHSNGYTYLHWYLQKPGQSPQLLIYKVSNRRSGVPDRFSGSGSGTDFTLKISRVEAEDVGVYYCSQSTRVPYTFGQGTKLEIK
notes: as for B1
Take B3: in test [1], the “Luciferase activation plate bound 33 nM IgG, FOC” value is 24.9 FOC. The “Luciferase activation soluble 10 nM IgG, FOC” value in test [1] worked out at 1.75 FOC. The Kd in test [2] came to 0.219 nM; in test [3], 1.58 nM; in test [4], 1.28 nM; in test [5], 1.5 nM.

B4: AL2p-27 (antibody, V domains shown)
VH: QVQLVQSGAEVKKPGSSVKVSCKASGYAFSSHWMNWVRQAPGQGLEWMGRIYPGQGDTNYAQKFQGRVTITADESTSTAYMELSSLRSEDTAVYYCARLLRNQPGESYAMDYWGQGTLVTVSS
VL: GVVMTQTPLSLSVTPGQPASISCRSSRSLVHSNGYTYLHWYLQKPGQSPQLLIYKVSNRVSGVPDRFSGSGSGTDFTLKISRVEAEDVGVYYCSQSTRVPYTFGQGTKLEIK
notes: as for B1
For B4, the “Luciferase activation plate bound 33 nM IgG, FOC” value in test [1] came out at 24.4 FOC. In addition, the “Luciferase activation soluble 10 nM IgG, FOC” value in test [1] is 2.06 FOC. Besides, the Kd in test [2] stood at 0.274 nM; in test [3] it was 1.99 nM; in test [4] it was 1.82 nM; in test [5], 1.5 nM.

B5: AL2p-28 (antibody, V domains shown)
VH: QVQLVQSGAEVKKPGSSVKVSCKASGYAFSSHWMNWVRQAPGQGLEWMGRIYPGVGDTNYAQKFQGRVTITADESTSTAYMELSSLRSEDTAVYYCARLLRNQPGESYAMDYWGQGTLVTVSS
VL: GVVMTQTPLSLSVTPGQPASISCRTSQSLVHSNGYTYLHWYLQKPGQSPQLLIYKVSNRVSGVPDRFSGSGSGTDFTLKISRVEAEDVGVYYCSQSTRVPYTFGQGTKLEIK
notes: as for B1
B5: the “Luciferase activation plate bound 33 nM IgG, FOC” value in test [1] was 9.27 FOC. Besides, the “Luciferase activation soluble 10 nM IgG, FOC” value in test [1] is 2.14 FOC. Besides, the Kd in test [2] was found to be 0.417 nM; in test [3], 7.6 nM; in test [4], 7.91 nM; in test [5], 2.2 nM.

B6: AL2p-32 (antibody, V domains shown)
VH: QVQLVQSGAEVKKPGSSVKVSCKASGYAFSSEWMNWVRQAPGQGLEWMGRIYPGDGDTNYAQKFQGRVTITADESTSTAYMELSSLRSEDTAVYYCARLLRNQPGESYAMDYWGQGTLVTVSS
VL: GVVMTQTPLSLSVTPGQPASISCRSSQSLVHSNGYTYLHWYLQKPGQSPQLLIYKVSNRRSGVPDRFSGSGSGTDFTLKISRVEAEDVGVYYCSQSTRVPYTFGQGTKLEIK
notes: as for B1
On to B6, for which the “Luciferase activation plate bound 33 nM IgG, FOC” value in test [1] turned out to be 4.9 FOC. Besides, the “Luciferase activation soluble 10 nM IgG, FOC” value in test [1] amounted to 1.47 FOC. Further, the Kd was determined as 1.12 nM in test [2], 36 nM in test [3], 34.8 nM in test [4] and 2.8 nM in test [5].

B7: AL2p-25 (antibody, V domains shown)
VH: QVQLVQSGAEVKKPGSSVKVSCKASGYAFSSHWMNWVRQAPGQGLEWMGRIYPGGGDTNYAQKFRGRVTITADESTSTAYMELSSLRSEDTAVYYCARLLRNQPGESYAMDYWGQGTLVTVSS
VL: GVVMTQTPLSLSVTPGQPASISCRTSQSLVHSNGYTYLHWYLQKPGQSPQLLIYKVSNRVSGVPDRFSGSGSGTDFTLKISRVEAEDVGVYYCSQSTRVPYTFGQGTKLEIK
notes: as for B1
Consider B7, for which the “Luciferase activation plate bound 33 nM IgG, FOC” value in test [1] is 22.3 FOC. For the same molecule, the “Luciferase activation soluble 10 nM IgG, FOC” value in test [1] worked out at 2.35 FOC. For the same molecule, the Kd in test [2] worked out at 0.22 nM; in test [3], 2.34 nM; in test [4], 1.76 nM; in test [5], 1.7 nM.

B8: AL2p-21 (antibody, V domains shown)
VH: QVQLVQSGAEVKKPGSSVKVSCKASGYAFSSHWMNWVRQAPGQGLEWMGRIYPGDGDTNYAWKFQGRVTITADESTSTAYMELSSLRSEDTAVYYCARLLRNQPGESYAMDYWGQGTLVTVSS
VL: GVVMTQTPLSLSVTPGQPASISCRSSSSLVHSNGYTYLHWYLQKPGQSPQLLIYKVSNRKSGVPDRFSGSGSGTDFTLKISRVEAEDVGVYYCSQSTRVPYTFGQGTKLEIK
notes: as for B1
As for B8, in test [1], the “Luciferase activation plate bound 33 nM IgG, FOC” value worked out at 13.1 FOC. Moreover, the “Luciferase activation soluble 10 nM IgG, FOC” value in test [1] stood at 1.83 FOC. Also, the dissociation constant Kd in test [2] amounted to 0.399 nM; in test [3], 4.15 nM; in test [4], 3.84 nM; in test [5], 1.5 nM.

B9: AL2p-30 (antibody, V domains shown)
VH: QVQLVQSGAEVKKPGSSVKVSCKASGYAFSSQWMNWVRQAPGQGLEWMGRIYPGDGDTNYAWKFQGRVTITADESTSTAYMELSSLRSEDTAVYYCARLLRNQPGESYAMDYWGQGTLVTVSS
VL: GVVMTQTPLSLSVTPGQPASISCRSSSSLVHSNGYTYLHWYLQKPGQSPQLLIYKVSNRKSGVPDRFSGSGSGTDFTLKISRVEAEDVGVYYCSQSTRVPYTFGQGTKLEIK
notes: as for B1
Consider B9, for which, in test [1], the “Luciferase activation plate bound 33 nM IgG, FOC” value was found to be 15.8 FOC. The “Luciferase activation soluble 10 nM IgG, FOC” value in test [1] was 2.31 FOC. The Kd is 0.377 nM in test [2], 6.5 nM in test [3], 5.66 nM in test [4] and 1.2 nM in test [5].

B10: AL2p-33 (antibody, V domains shown)
VH: EVQLVQSGAEVKKPGSSVKVSCKASGYAFSSSWMNWVRQAPGQGLEWMGRIYPGDGDTNYAQKFQGRVTITADESTSTAYMELSSLRSEDTAVYYCARLLRNQPGESYAMDYWGQGTLVTVSS
VL: GVVMAQTPLSLSVTPGQPASISCRTSQSLVHSNGYTYLHWYLQKPGQSPQLLIYKVSNRVSGVPDRFSGSGSGTDFTLKISRVEAEDVGVYYCSQSTRVPYTFGQGTKLEIK
notes: as for B1
For B10, the “Luciferase activation plate bound 33 nM IgG, FOC” value in test [1] is 3.21 FOC. Besides, the “Luciferase activation soluble 10 nM IgG, FOC” value in test [1] was 1.72 FOC. Besides, the Kd in test [2] was found to be 0.889 nM; in test [3], 10.3 nM; in test [4], 0.884 nM; in test [5] it was 4.5 nM.
